The text below walks through data of patent US20170334951A1 (Memorial Sloan Kettering, published 2017).

Among the targets are HLA-B3503 (human); HLA-B3501 (human); HLA-A0201 (human); HLA-B4001 (human); HLA-A2402 (human); HLA-A0101 (human); HLA-B0702 (human); HLA-B4701 (human); HLA-A3101 (human); HLA-B4402 (human); HLA-C1701 (human); HLA-B3508 (human); HLA-B3802 (human); HLA-DRB10402 (human); HLA-B5701 (human); HLA-A6901 (human); HLA-A0203 (human); HLA-DRB10101 (human); HLA-C0401 (human); HLA-DRB11104 (human); HLA-B3801 (human); HLA-DRB10401 (human); HLA-B3901 (human).

What all share (assay): cell-based or functional assay

On to RTPYSSDNL [WT1 218-226 RTPYSSDNL], for which, in the test with HLA-B3503, the “Cytotoxic CTL response, % (at 50:1) E:T ratio vs WT1+ allo APC with restricting HLA allele loaded with WT1 peptide” value was 31%. On to PSCLESQPA [WT1 135-143 PSCLESQPA], for which the “Cytotoxic CTL response, % (at 50:1) E:T ratio vs WT1+ allo APC with restricting HLA allele loaded with WT1 peptide” value in the test with HLA-B3501 turned out to be 21%. Consider NMHQRNHTKL [WT1 436-445 NMHQRNHTKL], for which the “Cytotoxic CTL response, % (at 50:1) E:T ratio vs WT1+ allo APC with restricting HLA allele loaded with WT1 peptide” value with HLA-A0201 amounted to 32%; with HLA-B4001, 26%; with HLA-A2402, 27%. As to FMCAYPGCNK [WT1 323-332 FMCAYPGCNK], the “Cytotoxic CTL response, % (at 50:1) E:T ratio vs WT1+ allo APC with restricting HLA allele loaded with WT1 peptide” value in the test with HLA-B3501 worked out at 61%; with HLA-A0101, 0%. For AILDFLLLQ [WT1 (-75)-(-67) AILDFLLLQ], in the test with HLA-A0201, the “Cytotoxic CTL response, % (at 50:1) E:T ratio vs WT1+ allo APC with restricting HLA allele loaded with WT1 peptide” value was found to be 17%. With GYESDNHTT [WT1 269-278 GYESDNHTT], the results for the “Cytotoxic CTL response, % (at 50:1) E:T ratio vs WT1+ allo APC with restricting HLA allele loaded with WT1 peptide” value with HLA-B3501 and with HLA-A0101 were 23% and 26%, respectively. With RQRPHPGAL [WT1 (-125)-(-117) RQRPHPGAL], the “Cytotoxic CTL response, % (at 50:1) E:T ratio vs WT1+ allo APC with restricting HLA allele loaded with WT1 peptide” value in the test with HLA-B0702 came to 53%. For HSFKHEDPM [WT1 174-182 HSFKHEDPM], the “Cytotoxic CTL response, % (at 50:1) E:T ratio vs WT1+ allo APC with restricting HLA allele loaded with WT1 peptide” value with HLA-B3501 is 63%. On to PGCLQQPEQ [WT1 (-47)-(-39) PGCLQQPEQ], for which the “Cytotoxic CTL response, % (at 50:1) E:T ratio vs WT1+ allo APC with restricting HLA allele loaded with WT1 peptide” value in the test with HLA-A0201 was 27%; with HLA-B4701, 25%. On to HFPPSLPPT [WT1 (-107)-(-99) HFPPSLPPT], for which, in the test with HLA-A3101, the “Cytotoxic CTL response, % (at 50:1) E:T ratio vs WT1+ allo APC with restricting HLA allele loaded with WT1 peptide” value was 27%.

As for CTGSQALLL [WT1 209-217 CTGSQALLL], in the test with HLA-A0101, the “Cytotoxic CTL response, % (at 50:1) E:T ratio vs WT1+ allo APC with restricting HLA allele loaded with WT1 peptide” value worked out at 26%. ASGSEPQQM [WT1 (-8)-(1) ASGSEPQQM]: the “Cytotoxic CTL response, % (at 50:1) E:T ratio vs WT1+ allo APC with restricting HLA allele loaded with WT1 peptide” value with HLA-B3501 is 51%. For the molecule NQMNLGATL [WT1 239-248 NQMNLGATL], in the test with HLA-A2402, the “Cytotoxic CTL response, % (at 50:1) E:T ratio vs WT1+ allo APC with restricting HLA allele loaded with WT1 peptide” value was determined as 2%. On to CHTPTDSCT [WT1 202-210 CHTPTDSCT], for which, in the test with HLA-B4402, the “Cytotoxic CTL response, % (at 50:1) E:T ratio vs WT1+ allo APC with restricting HLA allele loaded with WT1 peptide” value was 19%. As to WNQMNLGAT [WT1 238-246 WNQMNLGAT], the “Cytotoxic CTL response, % (at 50:1) E:T ratio vs WT1+ allo APC with restricting HLA allele loaded with WT1 peptide” value with HLA-C1701 worked out at 7%; in the test with HLA-B3508 it was 21%; in the test with HLA-A0201 it was 21%; with HLA-A0101, 19%. With PAPPPPPPP [WT1 58-66 PAPPPPPPP], the “Cytotoxic CTL response, % (at 50:1) E:T ratio vs WT1+ allo APC with restricting HLA allele loaded with WT1 peptide” value with HLA-A0201 was determined as 18%. Turning to TDSCTGSQA [WT1 206-214 TDSCTGSQA], the “Cytotoxic CTL response, % (at 50:1) E:T ratio vs WT1+ allo APC with restricting HLA allele loaded with WT1 peptide” value stood at 88% with HLA-B4402 and 53% with HLA-B3802. As for SAYGSLGGP [WT1 46-54 SAYGSLGGP], the “Cytotoxic CTL response, % (at 50:1) E:T ratio vs WT1+ allo APC with restricting HLA allele loaded with WT1 peptide” value with HLA-A0201 is 31%; with HLA-B4001, 24%. On to CMTWNQMNLGATLKG [WT1 235-249 CMTWNQMNLGATLKG], for which, in the test with HLA-DRB10402, the “Cytotoxic CTL response, % (at 50:1) E:T ratio vs WT1+ allo APC with restricting HLA allele loaded with WT1 peptide” value turned out to be 15%. On to LDFAPPGASAY [WT1 38-48 LDFAPPGASAY], for which, in the test with HLA-DRB10402, the “Cytotoxic CTL response, % (at 50:1) E:T ratio vs WT1+ allo APC with restricting HLA allele loaded with WT1 peptide” value amounted to 71%. Consider GGCALPVSGA [WT1 22-31 GGCALPVSGA], for which the “Cytotoxic CTL response, % (at 50:1) E:T ratio vs WT1+ allo APC with restricting HLA allele loaded with WT1 peptide” value in the test with HLA-A0201 came out at 25%. NLGATLKGV [WT1 242-250 NLGATLKGV]: the “Cytotoxic CTL response, % (at 50:1) E:T ratio vs WT1+ allo APC with restricting HLA allele loaded with WT1 peptide” value with HLA-A0201 came out at 14%; in the test with HLA-A0101, 17%. Turning to NLYQMTSQLE [WT1 225-233 NLYQMTSQLE], in the test with HLA-A0201, the “Cytotoxic CTL response, % (at 50:1) E:T ratio vs WT1+ allo APC with restricting HLA allele loaded with WT1 peptide” value came to 28%. RDLNALLPAV [WT1 6-15 RDLNALLPAV]: the “Cytotoxic CTL response, % (at 50:1) E:T ratio vs WT1+ allo APC with restricting HLA allele loaded with WT1 peptide” value with HLA-A0201 worked out at 31%; with HLA-B5701, 22%. Turning to THSPTHPPR [WT1 (-99)-(-91) THSPTHPPR], the “Cytotoxic CTL response, % (at 50:1) E:T ratio vs WT1+ allo APC with restricting HLA allele loaded with WT1 peptide” value with HLA-A0201 is 21%; in the test with HLA-B4001, 31%.

With ACRYGPFGP [WT1 106-114 ACRYGPFGP], in the test with HLA-B4402, the “Cytotoxic CTL response, % (at 50:1) E:T ratio vs WT1+ allo APC with restricting HLA allele loaded with WT1 peptide” value was found to be 23%. With NQGYSTVTF [WT1 146-154 NQGYSTVTF], the “Cytotoxic CTL response, % (at 50:1) E:T ratio vs WT1+ allo APC with restricting HLA allele loaded with WT1 peptide” value with HLA-A0101 is 15%. Consider TLGVAAGS [WT1 246-253 TLGVAAGS], for which the “Cytotoxic CTL response, % (at 50:1) E:T ratio vs WT1+ allo APC with restricting HLA allele loaded with WT1 peptide” value with HLA-A6901 was found to be 57%. With PLPHFPPSL [WT1 (-110)-(-102) PLPHFPPSL], the “Cytotoxic CTL response, % (at 50:1) E:T ratio vs WT1+ allo APC with restricting HLA allele loaded with WT1 peptide” value with HLA-A0201 was determined as 24%. GALRNPTAC [WT1 (-119)-(-111) GALRNPTAC]: in the test with HLA-B0702, the “Cytotoxic CTL response, % (at 50:1) E:T ratio vs WT1+ allo APC with restricting HLA allele loaded with WT1 peptide” value came to 22%. For RKFSRSDHL [WT1 390-398 RKFSRSDHL], the “Cytotoxic CTL response, % (at 50:1) E:T ratio vs WT1+ allo APC with restricting HLA allele loaded with WT1 peptide” value in the test with HLA-A0201 was determined as 27%. Turning to LDFAPPGAS [WT1 38-46 LDFAPPGAS], the “Cytotoxic CTL response, % (at 50:1) E:T ratio vs WT1+ allo APC with restricting HLA allele loaded with WT1 peptide” value with HLA-A0201 is 62%. LGATLKGVAA [WT1 243-252 LGATLKGVAA]: the “Cytotoxic CTL response, % (at 50:1) E:T ratio vs WT1+ allo APC with restricting HLA allele loaded with WT1 peptide” value with HLA-A0203 was determined as 21%.

With PGCLQQPEQQG [WT1 (-47)-(-37) PGCLQQPEQQG], the “Cytotoxic CTL response, % (at 50:1) E:T ratio vs WT1+ allo APC with restricting HLA allele loaded with WT1 peptide” value with HLA-DRB10101 turned out to be 25%. Consider SGQARMFPN [WT1 122-130 SGQARMFPN], for which the “Cytotoxic CTL response, % (at 50:1) E:T ratio vs WT1+ allo APC with restricting HLA allele loaded with WT1 peptide” value in the test with HLA-C0401 and in the test with HLA-B3503 was 41% throughout. For the molecule WNQMNLGATLK [WT1 238-248 WNQMNLGATLK], the “Cytotoxic CTL response, % (at 50:1) E:T ratio vs WT1+ allo APC with restricting HLA allele loaded with WT1 peptide” value with HLA-DRB11104 stood at 1%. Take LKTHTTRTHT [WT1 398-406 …]: in the test with HLA-A0201, the “Cytotoxic CTL response, % (at 50:1) E:T ratio vs WT1+ allo APC with restricting HLA allele loaded with WT1 peptide” value stood at 22%. KLGAAEASA [WT1 (-27)-(-19) KLGAAEASA]: the “Cytotoxic CTL response, % (at 50:1) E:T ratio vs WT1+ allo APC with restricting HLA allele loaded with WT1 peptide” value with HLA-A0201 came to 22%. In the case of HHAAQFPNH [WT1 166-174 HHAAQFPNH], in the test with HLA-B3801, the “Cytotoxic CTL response, % (at 50:1) E:T ratio vs WT1+ allo APC with restricting HLA allele loaded with WT1 peptide” value is 17%. Take KRPFMCAYPGC [WT1 320-334 KRPFMCAYPGC]: the “Cytotoxic CTL response, % (at 50:1) E:T ratio vs WT1+ allo APC with restricting HLA allele loaded with WT1 peptide” value with HLA-DRB10401 is 0%. Take GAAQWAPVL [WT1 30-38 GAAQWAPVL]: the “Cytotoxic CTL response, % (at 50:1) E:T ratio vs WT1+ allo APC with restricting HLA allele loaded with WT1 peptide” value with HLA-B3901 turned out to be 19%.
